Measured values taken from US20240352096A1 (KANGLIN BIOTECHNOLOGY HANGZHOU, published 2024).

Columns and labels:
Assay in all cases: cell-based or functional assay
[1] = target: T1, HIV-1 envelope protein of HIV-1 strain pAD-8 (CCR5 tropism) (HIV-1 strain pAD-8)
[2] = target: T2, HIV-1 envelope protein of HIV-1 strain pNL4-3 (CXCR4 tropism) (HIV-1 strain pNL4-3)
[3] = target: T1, HIV-1 envelope protein of HIV-1 strain …; remark: listed apart in the source
[4] = target: T2, HIV-1 envelope protein of HIV-1 strain …; remark: listed apart in the source
[5] = target: T1, HIV-1 envelope protein of HIV-1 strain …; remark: listed apart in the source
[6] = target: T2, HIV-1 envelope protein of HIV-1 strain …; remark: listed apart in the source

B1: Anti-HIV amphotropic neutralizing antibody-like molecule KL-BsHIV01-02 (bispecific antibody)
chain: SELTQDPAVSVALKQTVTITCRGDSLRSHYASWYQKKPGQAPVLLFYGKNNRPSGIPDRFSGSASGNRASLTITGAQAEDEADYYCSSRDKSGSRLSVFGGGTKLTVLGGGGSGGGGSGGGGSEVRLRESGGGLVKPGGSLRLSCSASGFDFDNAWMTWVRQPPGKGLEWVGRITGPGEGWSVDYAESVKGRFTISRDNTKNTLYLEMNNVRTEDTGYYFCARTGKYYDFWFGYPPGEEYFQDWGQGTLVIVSSGGGGSGGGGSGGGGSGGGGSGGGGSDIVMTQSPDSLAVSLGERVTMNCKSSQSLLYSTNQKNYLAWYQQKPGQSPKLLIYWASTRESGVPDRFSGSGSGTDFTLTISSVQAEDVAVYYCQQYYSYRTFGGGTKLEIKRTVAGGGGSGGGGSGGGGSQVQLQQSGPEVVKPGASVKMSCKASGYTFTSYVIHWVRQKPGQGLDWIGYINPYNDGTDYDEKFKGKATLTSDTSTSTAYMELSSLRSEDTAVYYCAREKDNYATGAWFAYWGQGTLVTVSS
Neutralization percentage; serum of mice injected with AAV vector, serum stock volume 0.005 uL; TZM-bl luciferase [1]: -15.7%
Neutralization percentage; serum of mice injected with AAV vector, serum stock volume 0.05 uL; TZM-bl luciferase [1]: -4.43%
Neutralization percentage; serum of mice injected with AAV vector, serum stock volume 0.5 uL; TZM-bl luciferase [1]: 81.7%
Neutralization percentage; serum of mice injected with AAV vector, serum stock volume 0.005 uL; TZM-bl luciferase [2]: 27.7%
Neutralization percentage; serum of mice injected with AAV vector, serum stock volume 0.05 uL; TZM-bl luciferase [2]: 79%
Neutralization percentage; serum of mice injected with AAV vector, serum stock volume 0.5 uL; TZM-bl luciferase [2]: 100%
Neutralization percentage; AAV vector-transduced C2C12 supernatant, antibody concentration 2.5 ng/ml; TZM-bl luciferase [3]: 100%
Neutralization percentage; AAV vector-transduced C2C12 supernatant, antibody concentration 5 ng/ml; TZM-bl luciferase [3]: 100%
Neutralization percentage; AAV vector-transduced C2C12 supernatant, antibody concentration 10 ng/ml; TZM-bl luciferase [3]: 100%
Neutralization percentage; AAV vector-transduced C2C12 supernatant, antibody concentration 2.5 ng/ml; TZM-bl luciferase [4]: 100%
Neutralization percentage; AAV vector-transduced C2C12 supernatant, antibody concentration 5 ng/ml; TZM-bl luciferase [4]: 101%
Neutralization percentage; AAV vector-transduced C2C12 supernatant, antibody concentration 10 ng/ml; TZM-bl luciferase [4]: 100%

B2: Anti-HIV tritropic neutralizing antibody-like molecule KL-BsHIV01-003-02 (other)
chain: SELTQDPAVSVALKQTVTITCRGDSLRSHYASWYQKKPGQAPVLLFYGKNNRPSGIPDRFSGSASGNRASLTITGAQAEDEADYYCSSRDKSGSRLSVFGGGTKLTVLGGGGSGGGGSGGGGSEVRLRESGGGLVKPGGSLRLSCSASGFDFDNAWMTWVRQPPGKGLEWVGRITGPGEGWSVDYAESVKGRFTISRDNTKNTLYLEMNNVRTEDTGYYFCARTGKYYDFWFGYPPGEEYFQDWGQGTLVIVSSGGGGSGGGGSGGGGSGGGGSGGGGSDIVMTQSPDSLAVSLGERVTMNCKSSQSLLYSTNQKNYLAWYQQKPGQSPKLLIYWASTRESGVPDRFSGSGSGTDFTLTISSVQAEDVAVYYCQQYYSYRTFGGGTKLEIKRTVAGGGGSGGGGSGGGGSQVQLQQSGPEVVKPGASVKMSCKASGYTFTSYVIHWVRQKPGQGLDWIGYINPYNDGTDYDEKFKGKATLTSDTSTSTAYMELSSLRSEDTAVYYCAREKDNYATGAWFAYWGQGTLVTVSSGGGGSGGGGSGGGGSGGGGSGGGGSWEQKIEELLKKAEEQQKKNEEELKKLEK
Neutralization percentage; serum of mice injected with AAV vector, serum stock volume 0.005 uL; TZM-bl luciferase [1]: -11.7%
Neutralization percentage; serum of mice injected with AAV vector, serum stock volume 0.05 uL; TZM-bl luciferase [1]: -6.85%
Neutralization percentage; serum of mice injected with AAV vector, serum stock volume 0.5 uL; TZM-bl luciferase [1]: 62.5%
Neutralization percentage; serum of mice injected with AAV vector, serum stock volume 0.005 uL; TZM-bl luciferase [2]: 23.4%
Neutralization percentage; serum of mice injected with AAV vector, serum stock volume 0.05 uL; TZM-bl luciferase [2]: 56.7%
Neutralization percentage; serum of mice injected with AAV vector, serum stock volume 0.5 uL; TZM-bl luciferase [2]: 99.4%
IC50 for neutralizing HIV-1 strain pAD-8 (CCR5 tropism); purified antibody, TZM-bl luciferase [5]: 3.1 pM
IC50 for neutralizing HIV-1 strain pNL4-3 (CXCR4 tropism); purified antibody, TZM-bl luciferase [6]: 0.2 pM
Neutralization percentage; AAV vector-transduced C2C12 supernatant, antibody concentration 2.5 ng/ml; TZM-bl luciferase [3]: 100%
Neutralization percentage; AAV vector-transduced C2C12 supernatant, antibody concentration 5 ng/ml; TZM-bl luciferase [3]: 100%
Neutralization percentage; AAV vector-transduced C2C12 supernatant, antibody concentration 10 ng/ml; TZM-bl luciferase [3]: 100%
Neutralization percentage; AAV vector-transduced C2C12 supernatant, antibody concentration 2.5 ng/ml; TZM-bl luciferase [4]: 101%
Neutralization percentage; AAV vector-transduced C2C12 supernatant, antibody concentration 5 ng/ml; TZM-bl luciferase [4]: 101%
Neutralization percentage; AAV vector-transduced C2C12 supernatant, antibody concentration 10 ng/ml; TZM-bl luciferase [4]: 100%
